B1: SUCNR1/GPR91 (succinate receptor): N8A (protein)
parent chain: MLGIMAWNATCKNWLAAEAALEKYYLSIFYGIEFVVGVLGNTIVVYGYIFSLKNWNSSNIYLFNLSVSDLAFLCTLPMLIRSYANGNWIYGDVLCISNRYVLHANLYTSILFLTFISIDRYLIIKYPFREHLLQKKEFAILISLAIWVLVTLELLPILPLINPVITDNGTTCNDFASSGDPNYNLIYSMCLTLLGFLIPLFVMCFFYYKIALFLKQRNRQVATALPLEKPLNLVIMAVVIFSVLFTPYHVMRNVRIASRLGSWKQYQCTQVVINSFYIVTRPLAFLNSVINPVFYFLLGDHFRDMLMNQLRHNFKSLTSFSRWAHELLLSFREK
B2: SUCNR1/GPR91 (succinate receptor): N168A (protein)
parent chain: B1 parent chain

Experiments:
[1] = surface FLAG IF, nonpermeabilized HEK 293T, cadherin marker; settings: glycan lost; control: wild type
[2] = confocal IF, colocalisation with calnexin, HEK 293T; settings: glycan lost; control: wild type

Row | Protein | localisation_or_trafficking [1] | localisation_or_trafficking [2]
1 | B1 | increases | changes
2 | B2 | no change | no change

— publication PMC9321536
